Measured values published in patent publication US20230227568A1 (Pieris, published 2023).
Where two headings read alike, the source gives them in different places.

T1: human OX40 on cells (human, UniProt P43489 29-277)
T1 construct: whole, on cells; Stably transfected CHO cells (flow cytometry) and bought Jurkat reporter cells (OX40 bioassay); also called Flp-In-CHO::huOX40; human OX40-expressing CHO cells
T1 sequence (looked up): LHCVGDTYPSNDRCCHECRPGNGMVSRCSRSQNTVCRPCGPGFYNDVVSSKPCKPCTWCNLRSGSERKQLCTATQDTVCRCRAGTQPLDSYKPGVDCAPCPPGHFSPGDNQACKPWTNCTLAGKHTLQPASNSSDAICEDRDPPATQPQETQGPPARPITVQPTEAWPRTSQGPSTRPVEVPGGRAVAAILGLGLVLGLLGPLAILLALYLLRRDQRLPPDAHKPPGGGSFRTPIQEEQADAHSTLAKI


How the values were obtained:
[1] = target: T2, human GPC3 on HepG2 cells (human, UniProt P51654 25-554); experiment: flow cytometry, HepG2 cells
T2 construct: whole, on cells; Endogenous GPC3 of the tumor cell line; also called GPC3-positive tumor cell line HepG2; human GPC3-expressing HepG2 cells
Description: GPC3-positive tumor cell line HepG2 was cultured in Dulbecco's Modified Eagle's Medium ([…], Pan Biotech) supplemented with 10% Fetal Calf Serum (Sigma-Aldrich) and in cell culture flasks according to manufacturer's instruction (37° C., 5% CO₂ atmosphere).
(§1) 5×10⁴ cells per well were incubated for 1 h in ice-cold PBS containing 5% fetal calf serum (PBS-FCS). A dilution series of the tested multimeric proteins (SEQ ID NOs: 38-44 and 46-55), the 4-1BB-targeting lipocalin mutein as included in the multimeric proteins (SEQ ID NO: 64) or the GPC3-targeting lipocalin SEQ ID NO: 90 were added to the cells and incubated for 1 h on ice. Cells were washed twice with PBS and then incubated with a rabbit anti-NGAL or a goat anti-human IgG labeled with fluorescent dye Alexa 488 for 30 min on ice. Human IgG4 isotype (SEQ ID NOs: 29 and 30) and lipocalin mutein SEQ ID NO: 8 were tested as a negative control. Cells were subsequently washed and analyzed using iQue Flow cytometer (Intellicyte Screener). Mean geometric fluorescent signals were plotted and fitted with Graphpad software using nonlinear regression (shared bottom, four parameters, variable slope).

[2] = target: T3, human 4-1BB on cells (human, UniProt Q07011 24-255); experiment: flow cytometry, Flp-In-CHO::hu4-1BB cells
T3 construct: whole, on cells; Stably transfected CHO cells (flow cytometry) and bought Jurkat reporter cells (bioassay); also called Flp-In-CHO::hu4-1BB; human 4-1BB-expressing CHO cells
Description: as §1
(§2) Target-specific binding of hexavalent trimeric proteins to human 4-1BB-, OX40- or PD-L1-expressing cells was assessed by flow cytometry as described in Example 5, using CHO cells stably transfected with human 4-1BB, human OX40 or human PD-L1 (Flp-In system; Life Technologies).

[3] = target: T1, human OX40 on cells; experiment: flow cytometry, Flp-In-CHO::huOX40 cells
Description: as §1, §2

[4] = target: T4, cynomolgus 4-1BB on CHO cells (cynomolgus, UniProt A9YYE7 24-254); experiment: flow cytometry, Flp-In-CHO::cyno4-1BB cells
T4 construct: also called Flp-In-CHO::cyno4-1BB; cynomolgus 4-1BB-expressing CHO cells
Description: (§3) CHO cells were stably transfected with human 4-1BB, cynomolgus 4-1BB, or a mock control using the Flp-In system (Life Technologies) according to the manufacturer's instructions. Transfected CHO cells were maintained in Ham's F12 medium (Life Technologies) supplemented with 10% Fetal Calf Serum (Biochrom) and 500 μg/ml Hygromycin B (Roth). Cells were cultured in cell culture flasks according to manufacturer's instruction (37° C., 5% CO₂ atmosphere).
as §1

[5] = target: T5, hu4-1BB-Fc (R&D Systems) (human, UniProt Q07011 24-186); experiment: SPR (Biacore 8K), hu4-1BB-Fc captured by anti-human IgG Fc; apparent value, 1:1 fit
T5 construct: Bought; also called human 4-1BB; not shown: human IgG Fc of the bought fusion
Description: The anti-human IgG Fc antibody (GE Healthcare) was immobilized on a CM5 sensor chip using standard amine chemistry: the carboxyl groups on the chip were activated using 1-ethyl-3-(3-dimethylaminopropyl)-carbodiimide (EDC) and N-hydroxysuccinimide (NHS). Subsequently, anti-human IgG Fc antibody solution (GE Healthcare) at a concentration of 25 μg/mL in 10 mM sodium acetate (pH 5.0) was applied at a flow rate of 5 μL/min until an immobilization level of 4000-10000 resonance units (RU) was achieved. Residual non-reacted NHS-esters were blocked by passing a solution of 1 M ethanolamine across the surface. The reference channel was treated in an analogous manner. Subsequently, hu4-1BB-Fc (R&D Systems) at 0.3 μg/mL was captured by the anti-human IgG-Fc antibody at the chip surface for 180 s at a flow rate of 10 μL/min.
The binding assay was carried out with a contact time of 180 s, a dissociation time of 1200 s or 3000 s and a flow rate of 30 μL/min. All measurements were performed at 25° C. Lipocalin mutein SEQ ID NO: 64 as included in the multimeric proteins was also tested as […]. […] Prior to the protein measurements, three startup cycles were performed for conditioning purposes. Data were evaluated with Biacore Evaluation software. Double referencing was used and the 1:1 binding model was used to fit the raw data.

[6] = target: T3, human 4-1BB on cells; experiment: flow cytometry, Flp-In-CHO::hu4-1BB cells; remark: listed apart in the source
Description: as §3, §1

[7] = target: T6, recombinant hu4-1BB-His (human 4-1BB with a C-terminal polyhistidine tag, R&D Systems) (human, UniProt Q07011 24-186); experiment: ELISA, hu4-1BB-His coated, detection anti-NGAL-HRP
T6 construct: Bought; not shown: C-terminal polyhistidine tag
Description: Recombinant hu4-1BB-His (human 4-1BB with a C-terminal polyhistidine tag, R&D Systems) at the concentration of 1 μg/mL in PBS was coated overnight on microtiter plates at 4° C. After washing with PBS-0.05% T (PBS supplemented with 0.05% (v/v) Tween 20), the plates were blocked with 2% BSA (w/v) in PBS-0.1% T (PBS supplemented with 0.1% (v/v) Tween 20) for 1 h at room temperature. After washing with 100 μL PBS-0.05% T five times, exemplary multimeric proteins (SEQ ID NOs: 38-44 and 46-53) or 4-1BB-specific lipocalin mutein as included in the multimeric protein (SEQ ID NO: 64) at different concentrations, ranging from 100 to 0.002 nM, were added to the wells and incubated for 1 h at room temperature, followed by another wash step. Bound molecules under study were detected by incubation with 1:1000 diluted anti-NGAL-HRP in PBS-0.1% T-2% BSA. After an additional wash step, fluorogenic HRP substrate (QuantaBlu, Thermo) was added to each well and the fluorescence intensity was detected using a fluorescence microplate reader.
The results of exemplary experiments are depicted in FIG. 2, together with the fit curves resulting from a 1:1 binding sigmoidal fit, where the EC₅₀ value and the maximum signal were free parameters, and the slope was fixed to one. The observed EC₅₀ values toward the hu4-1BB of all tested multimeric proteins were in the sub nanomolar range.

[8] = target: T3, human 4-1BB on cells; experiment: cell-based or functional assay

T3 sequence (Q07011 24-255): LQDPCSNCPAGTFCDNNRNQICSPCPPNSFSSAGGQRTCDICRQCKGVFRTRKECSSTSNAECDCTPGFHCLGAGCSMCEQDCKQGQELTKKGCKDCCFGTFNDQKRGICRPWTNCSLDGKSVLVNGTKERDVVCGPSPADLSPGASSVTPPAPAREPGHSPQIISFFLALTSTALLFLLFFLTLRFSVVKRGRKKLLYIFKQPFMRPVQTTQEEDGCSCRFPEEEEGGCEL
T4 sequence (A9YYE7 entry or part of it limits assumed): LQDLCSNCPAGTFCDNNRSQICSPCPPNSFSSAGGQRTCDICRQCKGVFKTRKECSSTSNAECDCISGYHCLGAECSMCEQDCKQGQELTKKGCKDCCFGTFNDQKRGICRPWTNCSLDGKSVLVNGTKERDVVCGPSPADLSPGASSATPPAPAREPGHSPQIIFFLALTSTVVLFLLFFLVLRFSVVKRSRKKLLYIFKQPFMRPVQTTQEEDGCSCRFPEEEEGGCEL
T2 sequence (P51654 25-554 limits assumed): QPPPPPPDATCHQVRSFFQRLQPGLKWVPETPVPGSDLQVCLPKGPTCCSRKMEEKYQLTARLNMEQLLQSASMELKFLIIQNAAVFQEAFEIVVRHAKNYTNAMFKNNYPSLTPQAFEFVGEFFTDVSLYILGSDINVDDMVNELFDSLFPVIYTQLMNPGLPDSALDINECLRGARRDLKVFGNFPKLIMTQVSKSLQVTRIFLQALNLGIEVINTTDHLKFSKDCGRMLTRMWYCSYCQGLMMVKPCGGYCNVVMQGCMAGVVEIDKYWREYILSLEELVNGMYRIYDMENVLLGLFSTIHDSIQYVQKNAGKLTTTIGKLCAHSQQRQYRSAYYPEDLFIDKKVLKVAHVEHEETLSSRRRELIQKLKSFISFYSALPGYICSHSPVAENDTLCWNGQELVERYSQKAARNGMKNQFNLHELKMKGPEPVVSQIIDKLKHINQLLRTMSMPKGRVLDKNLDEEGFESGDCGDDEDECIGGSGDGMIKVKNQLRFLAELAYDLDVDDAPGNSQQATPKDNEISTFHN

EC50 [1] | EC50 [2] | EC50 [3] | EC50 [4] | Kd [5] | koff [5] | kon [5] | EC50 [6] | EC50 [7] | EC50 [nM], 4-1BB bioassay (NFκB-luc2/4-1BB Jurkat luminescence), with HepG2 cells [8] | Binder
1.53 nM | – | – | – | – | – | – | – | – | – | GPC3-specific lipocalin mutein SEQ ID NO: 90 (designed binder, Monomeric hNGAL mutein) QDSTSDLIPAPPLSKVPLQQNFQDNQFQGKWYVVGRAGNVGLREDKDPPKMWATIYELKEDKSYDVTNVRFARKKCTYSIGTFVPGSQPGEFTLGQIKSEPGGTANLVRVVSTNYNQHAMVFFKEVYQNREIFFIILYGRTKELTSELKENFIRFSKSLGLPENHIVFPVPIDQCIDG
– | 4.51 nM | 0.56 nM | – | – | – | – | – | – | – | bispecific hexavalent trimeric protein SEQ ID NO: 166 (designed binder) QDSTSDLIPAPPLSKVPLQQNFQDSQFQGKWYVVGFAGNYRLREDKDPGKMQATIYELREDKAYQVTGVLFPHKKCHDDIVIFVPGSQPGEFILGWIKSDPGITSDLVRVVSTDYNQHAMVFFKWVFQNREWFYITLYGRTKALTSELKENFIRFSKSLGLPEDHIVFPVPIDQCIDGGGGGSGGGGSGGGGSQDSTSDLIPAPPLSKVPLQQNFQDNQFHGKWYVVGQAGNIRLREDKDPIKMMATIYELKEDKSYDVTMVKFDDKKCMYDIWTFVPGSQPGEFTLGKIKSFPGHTSSLVRVVSTNYNQHAMVFFKFVFQNREEFYITLYGRTKELTSELKENFIRFSKSLGLPENHIVFPVPIDQCIDGGGGGSGGGGSGGGGSGVRLWATRQAMLGQVHEVPEGWLIFVAEQEELYVRVQNGFRKVQLEARTPLGGSGGAPEQKLISEEDLGSHHHHHHHHHH
– | – | – | 2.62 nM | 0.17 nM | 1.36e-05 s⁻¹ | 78800 M⁻¹ s⁻¹ | 2.49 nM | 0.13 nM | 0.92 nM | multimeric protein SEQ ID NO: 50 (designed binder) QDSTSDLIPAPPLSKVPLQQNFQDNQFHGKWYVVGQAGNIRLREDKDPIKMMATIYELKEDKSYDVTMVKFDDKKCMYDIWTFVPGSQPGEFTLGKIKSFPGHTSSLVRVVSTNYNQHAMVFFKFVFQNREEFYITLYGRTKELTSELKENFIRFSKSLGLPENHIVFPVPIDQCIDGGGGGSGGGGSGGGGSGGGGSGGGGSGVRLWATRQAMLGQVHEVPEGWLIFVAEQEELYVRVQNGFRKVQLEARTPLGGGGSGGGGSGGGGSQDSTSDLIPAPPLSKVPLQQNFQDNQFHGKWYVVGQAGNIRLREDKDPIKMMATIYELKEDKSYDVTMVKFDDKKCMYDIWTFVPGSQPGEFTLGKIKSFPGHTSSLVRVVSTNYNQHAMVFFKFVFQNREEFYITLYGRTKELTSELKENFIRFSKSLGLPENHIVFPVPIDQCIDGGGSGGAPEQKLISEEDLGSHHHHHHHHHH
– | – | – | 4.41 nM | 0.36 nM | 2.53e-05 s⁻¹ | 71000 M⁻¹ s⁻¹ | 4.41 nM | 0.15 nM | 0.97 nM | multimeric protein SEQ ID NO: 51 (designed binder) QDSTSDLIPAPPLSKVPLQQNFQDNQFHGKWYVVGQAGNIRLREDKDPIKMMATIYELKEDKSYDVTMVKFDDKKCMYDIWTFVPGSQPGEFTLGKIKSFPGHTSSLVRVVSTNYNQHAMVFFKFVFQNREEFYITLYGRTKELTSELKENFIRFSKSLGLPENHIVFPVPIDQCIDGAEAAAKEAAAKEAAAKAGVRLWATRQAMLGQVHEVPEGWLIFVAEQEELYVRVQNGFRKVQLEARTPLGGGGSGGGGSGGGGSQDSTSDLIPAPPLSKVPLQQNFQDNQFHGKWYVVGQAGNIRLREDKDPIKMMATIYELKEDKSYDVTMVKFDDKKCMYDIWTFVPGSQPGEFTLGKIKSFPGHTSSLVRVVSTNYNQHAMVFFKFVFQNREEFYITLYGRTKELTSELKENFIRFSKSLGLPENHIVFPVPIDQCIDGGGSGGAPEQKLISEEDLGSHHHHHHHHHH
– | 2.19 nM | 0.18 nM | – | – | – | – | – | – | – | bispecific hexavalent trimeric protein SEQ ID NO: 165 (designed binder) QDSTSDLIPAPPLSKVPLQQNFQDNQFHGKWYVVGQAGNIRLREDKDPIKMMATIYELKEDKSYDVTMVKFDDKKCMYDIWTFVPGSQPGEFTLGKIKSFPGHTSSLVRVVSTNYNQHAMVFFKFVFQNREEFYITLYGRTKELTSELKENFIRFSKSLGLPENHIVFPVPIDQCIDGGGGGSGGGGSGGGGSQDSTSDLIPAPPLSKVPLQQNFQDSQFQGKWYVVGFAGNYRLREDKDPGKMQATIYELREDKAYQVTGVLFPHKKCHDDIVIFVPGSQPGEFILGWIKSDPGITSDLVRVVSTDYNQHAMVFFKWVFQNREWFYITLYGRTKALTSELKENFIRFSKSLGLPEDHIVFPVPIDQCIDGGGGGSGGGGSGGGGSGVRLWATRQAMLGQVHEVPEGWLIFVAEQEELYVRVQNGFRKVQLEARTPLGGSGGAPEQKLISEEDLGSHHHHHHHHHH
– | – | – | 4.55 nM | 0.13 nM | 9.99e-06 s⁻¹ | 77100 M⁻¹ s⁻¹ | 4.2 nM | 0.14 nM | 1.83 nM | multimeric protein SEQ ID NO: 53 (designed binder) GVRLWATRQAMLGQVHEVPEGWLIFVAEQEELYVRVQNGFRKVQLEARTPLGGGGSGGGGSGGGGSQDSTSDLIPAPPLSKVPLQQNFQDNQFHGKWYVVGQAGNIRLREDKDPIKMMATIYELKEDKSYDVTMVKFDDKKCMYDIWTFVPGSQPGEFTLGKIKSFPGHTSSLVRVVSTNYNQHAMVFFKFVFQNREEFYITLYGRTKELTSELKENFIRFSKSLGLPENHIVFPVPIDQCIDGGGGGSGGGGSGGGGSQDSTSDLIPAPPLSKVPLQQNFQDNQFHGKWYVVGQAGNIRLREDKDPIKMMATIYELKEDKSYDVTMVKFDDKKCMYDIWTFVPGSQPGEFTLGKIKSFPGHTSSLVRVVSTNYNQHAMVFFKFVFQNREEFYITLYGRTKELTSELKENFIRFSKSLGLPENHIVFPVPIDQCIDGGGSGGAPEQKLISEEDLGSHHHHHHHHHH
